In paper PMC5670216, “In vitro selections of mammaglobin A and mammaglobin B aptamers for the recognition of circulating breast tumor cells”:

T1: Mammaglobin B (MGB2), recombinant (UniProt O75556 19-95)
T1 sequence: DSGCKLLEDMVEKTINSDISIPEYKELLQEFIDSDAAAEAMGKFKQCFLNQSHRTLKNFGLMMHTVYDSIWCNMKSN

B1: MAMB1 (ssDNA)
DNA: CATGCTTACCTATAGTGAACCCAACGTCGAACTGAATCCCGTGTCCTTTGAGAACTGACTCATAC
B2: MAMA2 (ssDNA)
DNA: CATGCTTACCTATAGTGAACCCGGGACAGAACGTGCGCTTTGAGCTTTGAGAACTGACTCATAC

Assays:
[1] = target: T1, Mammaglobin B (MGB2), recombinant; assay: EMSA; aptamer 600 nM, protein 0-220 nM; unit implied by nM axis; EMSA: 50 mM Tris-HCl, 10 mM reduced glutathione, pH 8.0, 1 h at 37 C, 8% native PAGE; transfected-cell flow cytometry: PBS, 5 mM MgCl2, 4 C, 30 min, formaldehyde-fixed cells; conditions: tags: GST (stated for the SELEX protein)
[2] = target: Mammaglobin A (MGB1), recombinant (UniProt Q13296 19-93); assay: as above; conditions: tags: GST (stated for the SELEX protein)
Chain of Mammaglobin A (MGB1), recombinant (Q13296 19-93): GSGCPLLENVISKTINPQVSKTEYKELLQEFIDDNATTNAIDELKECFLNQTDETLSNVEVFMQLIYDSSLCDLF

Binder | Kd [1] [nM] | Kd [2] [nM]
B1 | 95 ± 7 | –
B2 | – | 88 ± 6
